Results: patent US20060241048A1

Assays:
[1] = biological target: bovine serum albumin (BSA) (bovine) (UniProt P02769); experiment: cell-based or functional assay
[2] = biological target: C5b-8 and C5b-9 complexes (human); experiment: cell-based or functional assay

Chain of UniProt P02769 (P02769 25-607 limits assumed): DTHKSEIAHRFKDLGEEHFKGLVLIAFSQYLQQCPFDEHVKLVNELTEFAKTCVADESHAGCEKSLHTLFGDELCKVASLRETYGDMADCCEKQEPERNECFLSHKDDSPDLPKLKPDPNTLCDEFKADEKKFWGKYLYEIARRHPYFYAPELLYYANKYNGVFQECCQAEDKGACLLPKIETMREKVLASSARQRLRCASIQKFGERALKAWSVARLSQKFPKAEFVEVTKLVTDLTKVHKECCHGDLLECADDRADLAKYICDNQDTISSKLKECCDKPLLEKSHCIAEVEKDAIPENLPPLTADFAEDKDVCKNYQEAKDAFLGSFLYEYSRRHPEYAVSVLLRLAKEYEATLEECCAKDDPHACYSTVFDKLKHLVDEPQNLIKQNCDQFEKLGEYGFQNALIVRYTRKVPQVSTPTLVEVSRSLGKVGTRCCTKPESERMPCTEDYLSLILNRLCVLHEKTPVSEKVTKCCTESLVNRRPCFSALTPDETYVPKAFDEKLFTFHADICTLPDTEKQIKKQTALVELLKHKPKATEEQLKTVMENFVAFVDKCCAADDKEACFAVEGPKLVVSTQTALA

Molecule	IH50 (nM), reactive lysis of guinea pig erythrocytes, Absence of HSA [2] [nM]	IH50 (nM), reactive lysis of guinea pig erythrocytes, Presence of HSA (2.7 mg/ml) [2] [nM]	IH50 (nM) of inhibition of haemolysis, Presence of Albumin (40 mg/ml) [absence of albumin: 0.26 at the 11th table, row 9, column 3] [1] [nM]	IH50 of inhibition of haemolysis, 4 mg/ml BSA [No BSA: 0.26 at the 13th table, row 8, column 3] [1] [nM]	IH50 of inhibition of haemolysis, 40 mg/ml BSA [No BSA: 0.26 at the 13th table, row 8, column 3] [1] [nM]
APT070, [SCR1-3]-Cys-S-S-[MSWP-1] (from UniProt P17927 42-237)			10		
APT070, [SCR1-3]-Cys-S-S-[MSWP-1] (from UniProt P17927 42-237) (other; unit assumed)				1.3	10
APT3073, conjugate of APT2439 and APT2258 via a disulphide (protein, human, N-terminal myristoyl (Myr-); C-terminal amide (-NH2); Cys (2-SPy before conjugation) disulphide-linked to CD59; carboxy-terminal Cys disulphide-linked to APT2258) MLQCYNCPNPTADCKTAVNCSSDFDACLITKAGLQVYNKCWKFEHCNFNDVTTRLRENELTYYCCKKDLCNFNEQLENC peptide: GSSKSPSKKDDKKPGDC	0.8	6			

Further lines, with some results ahead:

IH50 (nM), reactive lysis of guinea pig erythrocytes, Absence of HSA [2] [nM]	IH50 (nM), reactive lysis of guinea pig erythrocytes, Presence of HSA (2.7 mg/ml) [2] [nM]	Molecule	IH50 (nM) of inhibition of haemolysis, Presence of Albumin (40 mg/ml) [absence of albumin: 0.26 at the 11th table, row 9, column 3] [1] [nM]	IH50 of inhibition of haemolysis, 4 mg/ml BSA [No BSA: 0.26 at the 13th table, row 8, column 3] [1] [nM]	IH50 of inhibition of haemolysis, 40 mg/ml BSA [No BSA: 0.26 at the 13th table, row 8, column 3] [1] [nM]
600	400	Recombinant human CD59 (lacking the GPI anchor), with an amino-terminal methionine and a carboxy-terminal cysteine (APT2439) (protein) MLQCYNCPNPTADCKTAVNCSSDFDACLITKAGLQVYNKCWKFEHCNFNDVTTRLRENELTYYCCKKDLCNFNEQLENC			
0.1	0.08	APT3280, conjugate of APT2439 and APT3146 via a disulphide (protein, human, bisMyr at the N-terminal Lys; Cys (thiopyridylated before conjugation) disulphide-linked to CD59; carboxy-terminal Cys disulphide-linked to APT3146) MLQCYNCPNPTADCKTAVNCSSDFDACLITKAGLQVYNKCWKFEHCNFNDVTTRLRENELTYYCCKKDLCNFNEQLENC peptide: KSSKSPSKKDDKKPGDC			
